Assay [1] concerns the target full-length human cytoplasmic dynein 1 (wild type) (human) (UniProt Q14204). Nature of the assay: cryo-EM structure.
Assay [2] has the same target. Kind of assay: mass photometry.
A further assay has as its target T1, human Lis1 (wild type) (human, UniProt P43034 1-410).
T1 sequence: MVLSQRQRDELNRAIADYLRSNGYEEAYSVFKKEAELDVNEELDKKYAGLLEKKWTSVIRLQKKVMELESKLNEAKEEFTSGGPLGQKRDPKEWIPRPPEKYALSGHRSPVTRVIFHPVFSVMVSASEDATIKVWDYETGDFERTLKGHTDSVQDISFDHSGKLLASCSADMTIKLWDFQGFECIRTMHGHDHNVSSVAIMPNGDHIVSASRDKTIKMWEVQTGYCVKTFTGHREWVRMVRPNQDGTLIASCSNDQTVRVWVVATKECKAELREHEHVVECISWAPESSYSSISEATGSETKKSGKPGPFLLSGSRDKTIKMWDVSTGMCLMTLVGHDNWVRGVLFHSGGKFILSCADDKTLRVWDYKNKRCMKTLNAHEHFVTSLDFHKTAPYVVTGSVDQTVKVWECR
Kind of assay: mass photometry.

In assay [3] the target is T2, Lis1^All (D192K, D205K, E300A and K303A) (human, UniProt P43034 1-410, D192K | D205K | E300A | K303A).
T2 sequence (looked up): T1 sequence with D192K, D205K, E300A, K303A
Kind of assay: mass photometry.

Assay [4] concerns the target T3, Lis1^AAA6 (N203K, D205K and Q222A) (human, UniProt P43034 1-410, N203K | D205K | Q222A).
T3 sequence (looked up): T1 sequence with N203K, D205K, Q222A
Kind of assay: mass photometry.

Assay [5] has as its target T4, Lis1^AAA5 (D192K, Y225A and C226D) (human, UniProt P43034 1-410, D192K | Y225A | C226D).
T4 sequence (looked up): T1 sequence with D192K, Y225A, C226D
Kind of assay: mass photometry.

The values below come from paper PMC12965811 (Nature chemical biology, 2025).

Changes are numbered by the printed parent chain.

In assay [1], “human Lis1 (wild type) (from UniProt P43034 1-410) (natural protein)” returned a percent of autoinhibited dynein particles in the Phi^L–Lis1 conformation of 57.3% and a stoichiometry N (Lis1 dimer per dynein) of 1. In addition, in assay [2], the percent of 1:1 dynein:Lis1 complex (no Nde1, within 60 min) was 37%; the percent of complex formation (with Nde1, within a minute) was 69%; the stoichiometry N (Lis1 dimer per dynein dimer) came to 1; the stoichiometry N (Lis1 dimer per dynein) amounted to 1.

B1: human Nde1 (N-terminal residues 1–190) (domain or fragment, UniProt Q9NXR1 1-190, looked up)
chain: MEDSGKTFSSEEEEANYWKDLAMTYKQRAENTQEELREFQEGSREYEAELETQLQQIETRNRDLLSENNRLRMELETIKEKFEVQHSEGYRQISALEDDLAQTKAIKDQLQKYIRELEQANDDLERAKRATIMSLEDFEQRLNQAIERNAFLESELDEKENLLESVQRLKDEARDLRQELAVQQKQEKPR
On to B1, for which the binding result (with human Lis1 (wild type); in assay [3]; in assay [4]; in assay [5]) was “binds” throughout.
